We go through one molecule from US20230109393A1 (UNITED BIOMEDICAL, published 2023).

The assay addresses T1, ACE2-ECD-sFc fusion protein (Homo sapiens).
T1 construct: also called ACE2-sFc; ACE ECD-sFc
The assay can be described thus: ELISA, plate coated with ACE2 ECD-sFc. In general terms: ELISA stands for enzyme-linked immunosorbent assay.

B1: HRP alone (enzyme, UniProt P00433 31-338, looked up)
chain: QLTPTFYDNSCPNVSNIVRDTIVNELRSDPRIAASILRLHFHDCFVNGCDASILLDNTTSFRTEKDAFGNANSARGFPVIDRMKAAVESACPRTVSCADLLTIAAQQSVTLAGGPSWRVPLGRRDSLQAFLDLANANLPAPFFTLPQLKDSFRNVGLNRSSDLVALSGGHTFGKNQCRFIMDRLYNFSNTGLPDPTLNTTYLQTLRGLCPLNGNLSALVDFDLRTPTIFDNKYYVNLEEQKGLIQSDQELFSSPNATDTIPLVRSFANSTQTFFNAFVEAMDRMGNITPLTGTQGQIRLNCRVVNSNS
notes: also called HPR alone; control tracer
As for B1, the binding result was “no binding”.
